Test results from patent US20220396612A1 (UNIVERSIT DE TOURS, published 2022).

T1: denatured VLPs of BK polyomavirus VP-1 protein, serotype Ib2 (BK virus (BKPyV), serotype Ib2, UniProt P03088 1-362)
T1 construct: also called Ib2 denatured
T1 chain: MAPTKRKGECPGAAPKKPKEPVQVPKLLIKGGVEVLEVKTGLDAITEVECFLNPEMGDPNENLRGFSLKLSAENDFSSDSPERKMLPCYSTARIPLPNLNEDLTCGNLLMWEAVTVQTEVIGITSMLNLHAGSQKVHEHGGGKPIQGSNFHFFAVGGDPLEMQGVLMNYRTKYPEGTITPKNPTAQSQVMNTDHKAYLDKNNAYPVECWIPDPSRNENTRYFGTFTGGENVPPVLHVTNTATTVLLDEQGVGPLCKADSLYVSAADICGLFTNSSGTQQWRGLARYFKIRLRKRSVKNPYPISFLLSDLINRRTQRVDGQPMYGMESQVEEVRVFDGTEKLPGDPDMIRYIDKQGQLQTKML

T2: virus-like particles (VLPs) of BK polyomavirus VP-1 protein, serotype Ia (BK virus (BKPyV), serotype Ia, UniProt P03088 1-361)
T2 construct: self-assembled native VLPs coated on ELISA plates; also called VLP Ia; BKV VP-1, serotype Ia
T2 chain: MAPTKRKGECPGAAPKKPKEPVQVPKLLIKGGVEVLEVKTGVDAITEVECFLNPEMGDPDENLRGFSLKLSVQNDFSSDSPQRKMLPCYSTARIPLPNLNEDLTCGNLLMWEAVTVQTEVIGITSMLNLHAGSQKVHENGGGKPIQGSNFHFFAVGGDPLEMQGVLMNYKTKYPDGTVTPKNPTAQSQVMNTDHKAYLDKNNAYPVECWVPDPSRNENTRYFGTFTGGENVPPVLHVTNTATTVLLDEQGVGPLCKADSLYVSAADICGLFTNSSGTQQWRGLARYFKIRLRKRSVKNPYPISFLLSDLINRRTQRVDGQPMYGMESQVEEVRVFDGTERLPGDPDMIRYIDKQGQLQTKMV

T3: virus-like particles (VLPs) of BK polyomavirus VP-1 protein, serotype Ib2 (BK virus (BKPyV), serotype Ib2, PA …, UniProt P03088 1-362)
T3 construct: native VLPs; also the immunogen; also called VLP Ib2; BK Ib2
T3 chain: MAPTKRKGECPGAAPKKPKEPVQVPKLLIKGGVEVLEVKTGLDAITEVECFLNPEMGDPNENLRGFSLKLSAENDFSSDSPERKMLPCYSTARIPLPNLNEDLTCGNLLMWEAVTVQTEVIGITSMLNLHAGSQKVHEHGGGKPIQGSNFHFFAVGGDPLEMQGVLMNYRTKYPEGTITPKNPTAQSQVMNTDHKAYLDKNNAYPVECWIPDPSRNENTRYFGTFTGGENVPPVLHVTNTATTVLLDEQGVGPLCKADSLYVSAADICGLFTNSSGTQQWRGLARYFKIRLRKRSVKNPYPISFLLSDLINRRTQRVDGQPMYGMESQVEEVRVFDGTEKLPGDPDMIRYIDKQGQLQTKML

T4: virus-like particles (VLPs) of BK polyomavirus VP-1 protein, serotype II (BK virus (BKPyV), serotype II, UniProt P14996 1-362)
T4 construct: native VLPs; also called VLP II
T4 chain: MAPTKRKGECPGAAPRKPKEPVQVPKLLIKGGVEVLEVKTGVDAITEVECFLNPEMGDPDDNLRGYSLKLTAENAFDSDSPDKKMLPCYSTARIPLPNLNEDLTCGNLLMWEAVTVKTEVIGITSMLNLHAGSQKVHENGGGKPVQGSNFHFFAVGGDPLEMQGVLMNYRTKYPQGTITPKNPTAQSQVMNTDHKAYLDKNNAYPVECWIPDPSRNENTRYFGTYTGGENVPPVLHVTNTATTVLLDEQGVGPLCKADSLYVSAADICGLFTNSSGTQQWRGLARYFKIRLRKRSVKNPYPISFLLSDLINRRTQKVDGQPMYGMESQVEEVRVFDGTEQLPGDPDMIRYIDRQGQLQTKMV

T5: virus-like particles (VLPs) of BK polyomavirus VP-1 protein, serotype IV (BK virus (BKPyV), serotype IV, UniProt P14996 1-362)
T5 construct: native VLPs; also called VLP IV
T5 chain: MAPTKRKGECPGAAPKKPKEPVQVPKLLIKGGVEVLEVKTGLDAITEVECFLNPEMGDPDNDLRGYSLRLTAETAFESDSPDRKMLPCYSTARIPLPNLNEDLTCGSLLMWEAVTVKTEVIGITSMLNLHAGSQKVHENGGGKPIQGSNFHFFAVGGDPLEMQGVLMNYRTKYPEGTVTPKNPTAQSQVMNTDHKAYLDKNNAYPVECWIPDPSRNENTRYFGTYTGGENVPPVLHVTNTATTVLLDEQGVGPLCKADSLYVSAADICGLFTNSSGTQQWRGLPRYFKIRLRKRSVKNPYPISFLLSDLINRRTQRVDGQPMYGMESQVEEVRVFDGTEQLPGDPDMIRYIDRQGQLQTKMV


Experiments:
[1] = target: T1, denatured VLPs of BK polyomavirus VP-1 …; experiment: ELISA on denatured VLP (carbonate pH 10.6 + DTT; threshold OD>0.5)
Method: The wells were then blocked for 1 hour at +37° C. with a PBS/SVF mixture. After dilution in a dilution buffer containing SVF, PBS and Tween® 20, the individual culture supernatants or purified antibodies were added for 1 hour at +37° C. The wells were washed four times in a row with Wash Buffer and a secondary anti-mouse peroxidase antibody was added to the 1/2000 dilution for 1 hour at +37° C. The wells were washed again four times in a row and the substrate was added for 30 minutes at room temperature. A stop solution was added and then each well was read by measuring the absorbance at 492 nm with a spectrophotometer. The value obtained for the average of the control wells (PBS in the first step) was subtracted from the optical density values obtained for each well (detection threshold: OD>0.5).

[2] = target: T2, virus-like particles (VLPs) of BK …; experiment: ELISA on coated VLP; supernatant 1/40
Method: (§1) To do this, the VLPs produced were deposited at a concentration of 1 μg/mL in PBS and incubated overnight at +4° C. The wells were then blocked for 1 h at +37° C. with a PBS/FCS (phosphate-buffered saline/fetal calf serum) mixture. After dilution in a dilution buffer containing FCS, PBS and Tween® 20, the various hybridoma culture supernatants were added for 1 h at +37° C. The wells were washed four times in a row with Wash Buffer and a secondary anti-mouse antibody coupled to peroxidase was added to the 1:2000 dilution for 1 h at +37° C. The wells were washed four more times and the substrate (OPD (ortho phenylene diamine)+H₂O₂) was added for 30 min at room temperature. A stop solution (H₂SO₄ 4N) was then added and each well was read by measuring the absorbance at 492 nm with a spectrophotometer. The value obtained for the average of the control wells (PBS in the first step) is subtracted from the optical density values obtained for each well.

[3] = target: T3, virus-like particles (VLPs) of BK …; experiment: ELISA on coated VLP; supernatant 1/40
Method: as §1

[4] = target: T4, virus-like particles (VLPs) of BK …; experiment: ELISA on coated VLP; supernatant 1/40
Method: as §1

[5] = target: T5, virus-like particles (VLPs) of BK …; experiment: ELISA on coated VLP; supernatant 1/40
Method: as §1

[6] = target: T2, virus-like particles (VLPs) of BK …; experiment: ELISA on coated VLP; supernatant 1/80
Method: as §1

[7] = target: T3, virus-like particles (VLPs) of BK …; experiment: ELISA on coated VLP; supernatant 1/80
Method: as §1

[8] = target: T4, virus-like particles (VLPs) of BK …; experiment: ELISA on coated VLP; supernatant 1/80
Method: as §1

[9] = target: T5, virus-like particles (VLPs) of BK …; experiment: ELISA on coated VLP; supernatant 1/80
Method: as §1

[10] = target: T2, virus-like particles (VLPs) of BK …; experiment: ELISA on coated VLP; supernatant 1/10 240
Method: as §1

[11] = target: T4, virus-like particles (VLPs) of BK …; experiment: ELISA on coated VLP; supernatant 1/10 240
Method: as §1

[12] = target: T5, virus-like particles (VLPs) of BK …; experiment: ELISA on coated VLP; supernatant 1/10 240
Method: as §1

Binder | OD 492 nm [1] [OD] | OD 492 nm [2] [OD] | OD 492 nm [3] [OD] | OD 492 nm [4] [OD] | OD 492 nm [5] [OD] | OD 492 nm [6] [OD] | OD 492 nm [7] [OD] | OD 492 nm [8] [OD] | OD 492 nm [9] [OD] | OD 492 nm [10] [OD] | OD 492 nm [11] [OD] | OD 492 nm [12] [OD]
monoclonal antibody ‘18A2’ derived from hybridoma 18A2 (antibody, V domains shown, Mouse hybridoma antibody) VH: DVQLQESGPGLVKPSQSLSLTCSVTGYSITSGYYWNWIRQFPGNKLEWMGYISYDGSNNYNPSLKNRISITRDTSKNQFFLKLNSVTTEDTATYYCARWEGTTDYWGQGTTLTVSS VL: not shown | 0.16 |  |  |  |  |  |  |  |  |  |  | 
monoclonal antibody ‘H6’ secreted by clone BK6A2H6 (antibody, V domains shown) VH: EVQLQQSGPELVKPGASVKISCKASGYSFTGYFMNWVKQSHGKSLEWIGRINPYNGDTFYNQKFKGKATLTVDKSSSTAHMELLSLTSEDSAVYYCGSYYYGDYFDYWGQGTTLTVSS VL: SIVMTQIPKFLLVSEGDRVTITCKASQSVSNDVAWYQQKSGQSPKLLIYYASNRYTGVPDRFTGSGYGTDFTFTISTVQAEDLAVYFCQQDYSSPLTFGAGTKLELKR |  | 3.18 | 0.67 | 0.44 | 3.38 | 3.13 | 0.49 | 0.22 | 3.14 | 0.22 | 0.06 | 0.17
monoclonal antibody ‘F6’ secreted by clone BK6A2F6 (antibody) heavy: EVQLQQSGPELVKPGASVKISCKASGYSFTGYFMNWVKQSHGKSLEWIGRINPYNGDTFYNQKFKGKATLTVDKSSSTAHMELLSLTSEDSAVYYCGSYYYGDYFDYWGQGTTLTVSSAKTTPPSVYPLAPGSAAQTNSMVTLGCLVKGYFPEPVTVTWNSGSLSSGVHTFPAVLQSDLYTLSSSVTVPSSTWPSETVTCNVAHPASSTKVDKKIVPRDCGCKPCICTVPEVSSVFIFPPKPKDVLTITLTPKVTCVVVDISKDDPEVQFSWFVDDVEVHTAQTQPREEQFNSTFRSVSELPIMHQDWLNGKEFKCRVNSAAFPAPIEKTISKTKGRPKAPQVYTIPPPKEQMAKDKVSLTCMITDFFPEDITVEWQWNGQPAENYKNTQPIMDTDGSYFVYSKLNVQKSNWEAGNTFTCSVLHEGLHNHHTEKSLSHSPGK light: […] |  | 3.16 | 1.03 | 0.9 | 3.19 | 3.26 | 0.59 | 0.44 | 3.11 | 0.19 | 0.08 | 0.48
